From paper PMC7861563, “FOXP1 Interacts with MyoD to Repress its Transcription and Myoblast Conversion” (Journal of cellular signaling, 2021)

T1: Myoblast Determination protein 1 (MYOD1/MyoD), endogenous in C2C12 (mouse (endogenous in C2C12), UniProt P10085 1-318)
T1 sequence (looked up): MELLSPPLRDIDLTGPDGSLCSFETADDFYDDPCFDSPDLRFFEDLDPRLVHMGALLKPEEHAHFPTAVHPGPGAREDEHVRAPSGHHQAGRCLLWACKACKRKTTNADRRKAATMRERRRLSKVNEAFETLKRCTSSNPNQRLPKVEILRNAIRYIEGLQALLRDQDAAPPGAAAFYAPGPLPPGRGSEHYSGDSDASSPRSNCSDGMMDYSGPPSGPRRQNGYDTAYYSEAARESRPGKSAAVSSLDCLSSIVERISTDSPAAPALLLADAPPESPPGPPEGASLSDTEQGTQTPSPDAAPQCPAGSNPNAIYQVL

B1: Forkhead Box P1 (FOXP1), endogenous in C2C12 (natural protein, mouse (endogenous in C2C12), UniProt P58462 1-705, looked up)
chain: MMQESGSETKSNGSAIQNGSSGGNHLLECGALRDTRSNGEAPAVDLGAADLAHVQQQQQQALQVARQLLLQQQQQQQQQQQQQQQQQQQQQQQQQQQQQQQQQQQQQVSGLKSPKRNDKQPALQVPVSVAMMTPQVITPQQMQQILQQQVLSPQQLQVLLQQQQALMLQQQLQEFYKKQQEQLQLQLLQQQHAGKQPKEQQVATQQLAFQQQLLQMQQLQQQHLLSLQRQGLLTIQPGQPALPLQPLAQGMIPTELQQLWKEVTSAHTAEETTSSNHSSLDLTSTCVSSSAPSKSSLIMNPHASTNGQLSVHTPKRESLSHEEHPHSHPLYGHGVCKWPGCEAVCDDFPAFLKHLNSEHALDDRSTAQCRVQMQVVQQLELQLAKDKERLQAMMTHLHVKSTEPKAAPQPLNLVSSVTLSKSASEASPQSLPHTPTTPTAPLTPVTQGPSVITTTSMHTVGPIRRRYSDKYNVPISSADIAQNQEFYKNAEVRPPFTYASLIRQAILESPEKQLTLNEIYNWFTRMFAYFRRNAATWKNAVRHNLSLHKCFVRVENVKGAVWTVDEVEFQKRRPQKISGNPSLIKNMQSSHAYCTPLNAALQASMAENSIPLYTTASMGNPTLGSLASAIREELNGAMEHTNSNESDSSPGRSPMQAVHPIHVKEEPLDPEEAEGPLSLVTTANHSPDFDHDRDYEDEPVNEDME

Legend:
[1] = target: MyoD, bacterially expressed (UniProt P10085)
[2] = target: T1, Myoblast Determination protein 1 …; experiment: cell-based or functional assay

| Molecule | EMSA titration: amount of GST-Fkh for full inhibition of DNA binding of MyoD homodimers (200ng/reaction) [1] [ng] | EMSA titration: amount of GST-Fkh for full inhibition of DNA binding of MyoD-E47N (MyoD 200ng, E47N 50ng/reaction) [1] [ng] | MCK enhancer E box firefly luciferase reporter in 10T1/2 cells after 5-azacytidine, FOXP1 expression plasmid in varying amounts (highest input ~3-fold molar excess over MyoD) [2] [fold] | luciferase reporter driven by 2 E-box consensus MyoD binding sites (2R-luc) in differentiating C2C12, normalized to β-galactosidase [2] [fold] |
| --- | --- | --- | --- | --- |
| GST-FOXP Forkhead domain (GST-Fkh) (domain or fragment) | 100 | 400 |  |  |
| B1 |  |  | ~20 | ~12 |
